Test results: publication PMC6988089

Assays:
[1] = biological target: TAMRA-labeled benzylated H3K9 peptide; assay: fluorescence polarisation
[2] = biological target: TAMRA-labeled H3K9me3 peptide; assay: fluorescence polarisation

| Kd [1] [µM] | Kd [2] [µM] | Kd (H3K9me2 peptide) [µM] | Substance |
| --- | --- | --- | --- |
| 18.5 | – | – | CBX1 chromodomain F50A (from UniProt P83916 20-73) (domain or fragment) |
| 49 | > 1000 | – | CBX3-F44G mutant (from UniProt Q13185 1-183) (natural protein) |
| 5.5 | 80 | > 300 | Y26F/F50G-CBX1 chromodomain (from UniProt P83916 22-73) (domain or fragment) |
| > 1000 | – | – | wild-type CBX3 (from UniProt Q13185 1-183) (natural protein) |
